Results reported in patent US20020177203A1 (published 2002).

Target: T1, mouse α2 subunit of prolyl 4-hydroxylase (mouse, UniProt Q60716 20-537)
T1 construct: Recombinant, made in Sf9 insect cells with a baculovirus; also called α(2) subunit of mouse prolyl 4-hydroxylase; α2 polypeptide
Experiment: coexpression in insect cells; nondenaturing PAGE and Western blot
Procedure: A recombinant baculovirus coding for the mouse α2 subunit was generated and used to infect S. frugiperda insect cells with or without the human PDI/β subunit, wherein the insect cells were infected at a multiplicity of 5. For production of an enzyme tetramer, the human α59 1 (see, Vuori, et al., supra) or mouse α2 viruses and the PDI/β viruses (id.) were used in a 1:1 or 2:1 ratio. The cells were harvested 72 hours after infection, homogenized in 0.01 M tris, pH 7.8/0.1 M NaCl/0.1 M glycine/10 μM dithiothreitol/0.1% Triton X-100, and centrifuged. The resulting supematants were analyzed by SDS/8% PAGE or nondenaturing 7.5% PAGE and assayed for enzyme activities.

T1 sequence (Q60716 20-537): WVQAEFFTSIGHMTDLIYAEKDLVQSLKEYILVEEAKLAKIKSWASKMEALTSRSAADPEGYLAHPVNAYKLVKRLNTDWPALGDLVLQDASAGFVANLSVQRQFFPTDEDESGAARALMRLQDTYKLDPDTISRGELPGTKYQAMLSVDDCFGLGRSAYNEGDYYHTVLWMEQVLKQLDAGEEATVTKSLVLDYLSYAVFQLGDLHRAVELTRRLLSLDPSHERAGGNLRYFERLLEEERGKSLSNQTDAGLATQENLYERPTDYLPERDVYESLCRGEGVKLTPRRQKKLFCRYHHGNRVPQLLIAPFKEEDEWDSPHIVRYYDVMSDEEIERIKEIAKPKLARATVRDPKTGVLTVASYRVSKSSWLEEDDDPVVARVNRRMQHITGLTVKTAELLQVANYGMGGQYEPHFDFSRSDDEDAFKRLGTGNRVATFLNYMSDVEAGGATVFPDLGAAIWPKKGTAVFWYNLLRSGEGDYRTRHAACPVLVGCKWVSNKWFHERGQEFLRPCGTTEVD

B1: human PDI/β subunit of prolyl 4-hydroxylase (protein disulfide-isomerase) (enzyme)
chain: not shown
notes: Made in Sf9 insect cells with a recombinant baculovirus (Vuori et al.); also called human β subunit
- binding result: binds
